According to PMC9482650, “Quantitative fragmentomics allow affinity mapping of interactomes” (Nature Communications, 2022):

Assays:
[1] = biological target: T1, TJP3_3, O95049; experiment: holdup assay; set-up: key: below the threshold = too weak to quantify, mostly under pKd 3.1 to 4
T1 sequence (O95049 375-456, limits assumed, looked up): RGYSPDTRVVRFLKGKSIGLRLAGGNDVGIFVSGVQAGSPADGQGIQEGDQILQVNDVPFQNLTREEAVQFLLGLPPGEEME

[2] = biological target: SNX27, Q96L92; experiment: holdup assay; set-up: key: below the threshold = too weak to quantify, mostly under pKd 3.1 to 4
[3] = plain residues with an end cap or a label only (N-terminal biotin on a linker: ado-ado)
[4] = modified: phospho on T at position -2 from the C-terminal residue
[5] = modified: phospho on T at position -1 from the C-terminal residue

B1: DENND5A, Q6IQ26 (peptide)
chain: ETSLVKGIDI
For B1, the pKd [1, 3] was “below the threshold” and the pKd [2, 3] was “below the threshold”.

B2: CTNNA2, P26232 (peptide)
chain: LSEFKAMDSF
With B2 the pKd [1, 3] was “below the threshold” and the pKd [2, 3] was “below the threshold”.

B3: ADGRA1, Q86SQ6 (peptide)
chain: TGPWKNETTV
In the case of B3, the pKd [1, 3] is reported as “below the threshold” and the pKd [2, 3] is reported as 5.43.

B4: UQCRC2, P22695 (peptide)
chain: LGHTPFVDEL
For B4, the pKd [1, 3] was “below the threshold” and the pKd [2, 3] was 3.99.

B5: PLEKHH2, Q8IVE3 (peptide)
chain: SRPTKGPTLL
For B5, the pKd [1, 3] was “below the threshold” and the pKd [2, 3] was 3.76.

B6: C3AR1, Q16581 (peptide)
chain: VISERNSTTV
For B6, the pKd [1, 3] was “below the threshold” and the pKd [2, 3] was 4.57.

B7: ADAM17, P78536 (peptide)
chain: NRVDSKETEC
In the case of B7, the pKd [1, 3] is reported as “below the threshold” and the pKd [2, 3] is reported as 5.06.

B8: GLA, P06280 (peptide)
chain: TMQMSLKDLL
B8 was tested, and the pKd [1, 3] was “below the threshold” and the pKd [2, 3] was “below the threshold”.

B9: GRIP1, Q9Y3R0 (peptide)
chain: LETREPTNTL
With B9 the pKd [1, 3] was “below the threshold” and the pKd [2, 3] was “below the threshold”.

B10: FAT1, Q14517 (peptide)
chain: PLDSQQHTEV
B10 was tested, and the pKd [1, 3] was “below the threshold” and the pKd [2, 3] was 4.7.

B11: MCM7, P33993 (peptide)
chain: NASRTRITFV
For B11, the pKd [1, 3] was 3.53 and the pKd [2, 3] was 4.85.

B12: MARCHF9, Q86YJ5 (peptide)
chain: REVVMRVTTV
In the case of B12, the pKd [1, 3] is reported as “below the threshold” and the pKd [2, 3] is reported as 5.46.

B13: UNC93A, Q86WB7 (peptide)
chain: AEDEEIQTKM
B13 was tested, and the pKd [1, 3] was “below the threshold” and the pKd [2, 3] was 4.5.

B14: AMOTL1, Q8IY63 (peptide)
chain: PDGEMMEVLI
For B14, the pKd [1, 3] was “below the threshold” and the pKd [2, 3] was “below the threshold”.

B15: RPS6KA1_-2P, Q15418 (peptide)
chain: RRVRKLPSTTL
With B15 the pKd [1, 4] was “below the threshold” and the pKd [2, 4] was “below the threshold”.

B16: ADGRE5, P48960 (peptide)
chain: RALRASESGI
In the case of B16, the pKd [1, 3] is reported as “below the threshold” and the pKd [2, 3] is reported as “below the threshold”.

B17: PPP1R3G, B7ZBB8 (peptide)
chain: LRYARPADAL
B17 was tested, and the pKd [1, 3] was “below the threshold” and the pKd [2, 3] was 3.49.

B18: SCN4A, P35499 (peptide)
chain: VRPGVKESLV
B18 was tested, and the pKd [1, 3] was “below the threshold” and the pKd [2, 3] was 5.28.

B19: PPFIA1, Q13136 (peptide)
chain: DSATVRTYSC
In the case of B19, the pKd [1, 3] is reported as “below the threshold” and the pKd [2, 3] is reported as “below the threshold”.

B20: MARCHF4, Q9P2E8 (peptide)
chain: RELVMRVTTV
B20 was tested, and the pKd [1, 3] was “below the threshold” and the pKd [2, 3] was 5.48.

B21: APBA1, Q02410 (peptide)
chain: LTAQEQPVYI
For B21, the pKd [1, 3] was 3.67 and the pKd [2, 3] was “below the threshold”.

B22: NECTIN3, Q9NQS3 (peptide)
chain: SVISRREWYV
In the case of B22, the pKd [1, 3] is reported as 4.39 and the pKd [2, 3] is reported as “below the threshold”.

B23: HSPA5, P11021 (peptide)
chain: EEDTAEKDEL
In the case of B23, the pKd [1, 3] is reported as “below the threshold” and the pKd [2, 3] is reported as 3.61.

B24: CLDN19, Q8N6F1 (peptide)
chain: PASAKGPLGV
With B24 the pKd [1, 3] was “below the threshold” and the pKd [2, 3] was “below the threshold”.

B25: STK16, O75716 (peptide)
chain: PAPGQHTTQI
For B25, the pKd [1, 3] was “below the threshold” and the pKd [2, 3] was 4.27.

B26: PKP4, Q99569 (peptide)
chain: QYPGSPDSWV
Binder B26 has a pKd [1, 3] of 4.86 and a pKd [2, 3] of 4.72.

B27: SH2D3C, Q8N5H7 (peptide)
chain: LEPAVRSSEL
With B27 the pKd [1, 3] was “below the threshold” and the pKd [2, 3] was 4.68.

B28: RPS6KA1_-1P, Q15418 (peptide)
chain: RRVRKLPSTTL
For B28, the pKd [1, 5] was “below the threshold” and the pKd [2, 5] was 3.92.

B29: SMCHD1, A6NHR9 (peptide)
chain: QNRIITKTDV
With B29 the pKd [1, 3] was “below the threshold” and the pKd [2, 3] was 3.84.

B30: SLC6A3, Q01959 (peptide)
chain: QFTLRHWLKV
In the case of B30, the pKd [1, 3] is reported as “below the threshold” and the pKd [2, 3] is reported as 3.76.

B31: GOLT1A, Q6ZVE7 (peptide)
chain: RRLQGTSSMV
For B31, the pKd [1, 3] was “below the threshold” and the pKd [2, 3] was “below the threshold”.

B32: VAC14, Q08AM6 (peptide)
chain: GDHLDRRVVL
With B32 the pKd [1, 3] was “below the threshold” and the pKd [2, 3] was “below the threshold”.

B33: GRIA3, P42263 (peptide)
chain: NVYGTESVKI
With B33 the pKd [1, 3] was “below the threshold” and the pKd [2, 3] was “below the threshold”.

B34: BCR, P11274 (peptide)
chain: RQSILFSTEV
With B34 the pKd [1, 3] was “below the threshold” and the pKd [2, 3] was 4.89.

B35: LSM14A, Q8ND56;Q8ND56-2 (peptide)
chain: EYRKDNKVAA
In the case of B35, the pKd [1, 3] is reported as “below the threshold” and the pKd [2, 3] is reported as “below the threshold”.

B36: JAM3, Q9BX67 (peptide)
chain: DFRHKSSFVI
B36 was tested, and the pKd [1, 3] was “below the threshold” and the pKd [2, 3] was “below the threshold”.

B37: SSTR5, P35346 (peptide)
chain: ANGLMQTSKL
In the case of B37, the pKd [1, 3] is reported as “below the threshold” and the pKd [2, 3] is reported as 5.52.

B38: NOS1AP, O75052 (peptide)
chain: GDGLDDEIAV
In the case of B38, the pKd [1, 3] is reported as “below the threshold” and the pKd [2, 3] is reported as 4.19.

B39: YAP1, P46937 (peptide)
chain: LDKESFLTWL
With B39 the pKd [1, 3] was 4.18 and the pKd [2, 3] was 5.11.

B40: ADRB1, P08588 (peptide)
chain: RPGFASESKV
With B40 the pKd [1, 3] was “below the threshold” and the pKd [2, 3] was 4.84.

B41: FZD8, Q9H461 (peptide)
chain: YPKQMPLSQV
With B41 the pKd [1, 3] was “below the threshold” and the pKd [2, 3] was 3.97.

B42: TTC24, A2A3L6 (peptide)
chain: PMESGICTIV
For B42, the pKd [1, 3] was “below the threshold” and the pKd [2, 3] was 4.63.

B43: XKR7, Q5GH72 (peptide)
chain: QELLEYETTV
B43 showed a pKd [1, 3] of 3.5 and a pKd [2, 3] of 5.77.

B44: EFNB3, Q15768 (peptide)
chain: QSPPNIYYKV
With B44 the pKd [1, 3] was “below the threshold” and the pKd [2, 3] was 3.89.

B45: PKN2, Q16513 (peptide)
chain: RDFDYIADWC
B45 was tested, and the pKd [1, 3] was 4.57 and the pKd [2, 3] was 4.32.

B46: MAP7D2, Q96T17 (peptide)
chain: GQETPLNTFC
For B46, the pKd [1, 3] was “below the threshold” and the pKd [2, 3] was 3.49.

B47: CACNG4, Q9UBN1 (peptide)
chain: SMLNRRTTPV
In the case of B47, the pKd [1, 3] is reported as “below the threshold” and the pKd [2, 3] is reported as 4.93.

B48: AKAP10, O43572 (peptide)
chain: DQPLEKSTKL
With B48 the pKd [1, 3] was “below the threshold” and the pKd [2, 3] was 5.08.

B49: COMMD3, Q9UBI1 (peptide)
chain: SKSLERATQL
B49 was tested, and the pKd [1, 3] was “below the threshold” and the pKd [2, 3] was 4.25.

B50: RAMP3, O60896 (peptide)
chain: WRSKRTDTLL
With B50 the pKd [1, 3] was “below the threshold” and the pKd [2, 3] was 4.31.

B51: PTH2R, P49190 (peptide)
chain: GCQGETEDVL
In the case of B51, the pKd [1, 3] is reported as “below the threshold” and the pKd [2, 3] is reported as 4.52.

B52: NDE1, Q9NXR1;Q9NXR1-2 (peptide)
chain: KSTTRSSSSC
In the case of B52, the pKd [1, 3] is reported as “below the threshold” and the pKd [2, 3] is reported as “below the threshold”.

B53: TUBB4B, P68371 (peptide)
chain: FEEEAEEEVA
B53 was tested, and the pKd [1, 3] was “below the threshold” and the pKd [2, 3] was “below the threshold”.

B54: GJD2, Q9UKL4 (peptide)
chain: RTQSSDSAYV
B54 showed a pKd [1, 3] of 3.71 and a pKd [2, 3] of 4.13.

B55: GJA1, P17302 (peptide)
chain: SRPRPDDLEI
B55 was tested, and the pKd [1, 3] was “below the threshold” and the pKd [2, 3] was “below the threshold”.

B56: AKIP1, Q9NQ31 (peptide)
chain: GQSVDLVFPV
For B56, the pKd [1, 3] was “below the threshold” and the pKd [2, 3] was 3.84.

B57: SLC1A4, P43007 (peptide)
chain: PELESKESVL
For B57, the pKd [1, 3] was “below the threshold” and the pKd [2, 3] was 5.43.
